Legend:
Test in all cases: fluorescence polarization; FP: 50 mM KCl or as listed 100 mM KCl in both 2x buffers, HEPES (10 mM acid + 10 mM Na salt), 10% glycerol, 1 mM TCEP, tRNA, heparin, BSA, 0.3 nM FAM-RNA; EMSA: 100 mM KCl, 20% sucrose, 20 mM bis-tris/10 mM HCl pH ~6.5, 1 mM EDTA, 1 mM TCEP, 0.01% Triton X-100, tRNA, heparin, BSA, room temperature, gel at 4 C
Lsm2-8 Lsm3-R21A = biological target: T1, Lsm2-8 Lsm3-R21A (Saccharomyces cerevisiae, UniProt P38203;P57743;P40070;P40089;Q06406;P53905;P47093 …, R21A); conditions: protein: recombinant; tags: as P1; copies: 1;1;1;1;1;1;1; label: 5'-FAM; single strand
T1 sequence 1: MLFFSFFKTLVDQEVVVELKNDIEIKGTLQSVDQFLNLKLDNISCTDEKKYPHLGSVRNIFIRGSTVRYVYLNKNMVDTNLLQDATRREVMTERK
T1 sequence 2: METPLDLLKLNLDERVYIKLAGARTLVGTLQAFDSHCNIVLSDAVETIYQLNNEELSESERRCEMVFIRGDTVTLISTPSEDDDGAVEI
T1 sequence 3: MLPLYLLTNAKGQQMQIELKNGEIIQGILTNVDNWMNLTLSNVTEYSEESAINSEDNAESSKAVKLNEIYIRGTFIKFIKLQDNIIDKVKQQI
T1 sequence 4: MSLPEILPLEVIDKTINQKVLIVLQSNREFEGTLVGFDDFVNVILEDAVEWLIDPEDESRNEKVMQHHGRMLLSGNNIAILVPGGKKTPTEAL
T1 sequence 5: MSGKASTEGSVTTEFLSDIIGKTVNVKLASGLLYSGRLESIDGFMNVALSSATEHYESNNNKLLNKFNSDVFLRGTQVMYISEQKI
T1 sequence 6: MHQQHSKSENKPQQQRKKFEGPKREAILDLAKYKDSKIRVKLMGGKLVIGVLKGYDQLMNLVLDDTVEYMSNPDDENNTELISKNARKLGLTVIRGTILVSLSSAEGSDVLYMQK
T1 sequence 7: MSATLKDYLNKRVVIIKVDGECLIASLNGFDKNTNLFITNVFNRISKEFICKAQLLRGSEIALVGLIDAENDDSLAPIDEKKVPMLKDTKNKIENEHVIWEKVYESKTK

Lsm2-8 construct 2 (WT) = biological target: T2, Lsm2-8 construct 2 (WT) (Saccharomyces cerevisiae, UniProt P38203;P57743;P40070;P40089;Q06406;P53905;P47093 …); conditions: protein: recombinant; tags: Lsm8 C-terminal His6 (non-cleavable); Lsm3 C-terminal StrepII (non-cleavable); MBP on Lsm6 (TEV-labile); copies: 1;1;1;1;1;1;1; label: 5'-FAM; single strand
T2 sequence 1: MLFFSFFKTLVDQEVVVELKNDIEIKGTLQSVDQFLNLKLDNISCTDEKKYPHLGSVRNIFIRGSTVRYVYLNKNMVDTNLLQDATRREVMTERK
T2 sequence 2: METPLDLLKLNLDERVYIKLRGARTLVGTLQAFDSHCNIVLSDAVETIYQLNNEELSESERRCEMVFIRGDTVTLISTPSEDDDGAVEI
T2 sequence 3: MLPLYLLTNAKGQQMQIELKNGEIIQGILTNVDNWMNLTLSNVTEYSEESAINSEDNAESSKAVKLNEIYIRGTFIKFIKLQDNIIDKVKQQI
T2 sequence 4: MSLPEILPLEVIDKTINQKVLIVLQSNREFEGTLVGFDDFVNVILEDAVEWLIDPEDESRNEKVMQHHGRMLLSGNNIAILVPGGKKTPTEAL
T2 sequence 5: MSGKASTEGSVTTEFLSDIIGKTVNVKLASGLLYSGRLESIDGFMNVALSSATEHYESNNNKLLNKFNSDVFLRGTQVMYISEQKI
T2 sequence 6: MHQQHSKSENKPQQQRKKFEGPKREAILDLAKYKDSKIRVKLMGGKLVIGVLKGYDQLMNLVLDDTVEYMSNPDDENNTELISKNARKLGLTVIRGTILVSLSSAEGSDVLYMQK
T2 sequence 7: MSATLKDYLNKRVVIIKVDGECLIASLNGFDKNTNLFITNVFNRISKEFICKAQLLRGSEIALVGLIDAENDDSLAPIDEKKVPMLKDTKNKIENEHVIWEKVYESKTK

Lsm2-8 Lsm8-delC = biological target: T3, Lsm2-8 Lsm8-delC (Saccharomyces cerevisiae, UniProt P38203;P57743;P40070;P40089;Q06406;P53905;P47093 …); conditions: protein: recombinant; tags: as P1; copies: 1;1;1;1;1;1;1; label: 5'-FAM; single strand
T3 sequence 1: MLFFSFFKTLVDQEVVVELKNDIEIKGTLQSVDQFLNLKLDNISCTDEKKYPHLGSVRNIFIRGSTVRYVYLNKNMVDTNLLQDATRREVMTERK
T3 sequence 2: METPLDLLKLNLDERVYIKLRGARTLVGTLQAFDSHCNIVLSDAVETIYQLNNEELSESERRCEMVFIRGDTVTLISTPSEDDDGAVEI
T3 sequence 3: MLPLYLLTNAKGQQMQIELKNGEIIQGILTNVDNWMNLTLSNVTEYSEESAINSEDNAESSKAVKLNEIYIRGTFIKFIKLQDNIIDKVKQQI
T3 sequence 4: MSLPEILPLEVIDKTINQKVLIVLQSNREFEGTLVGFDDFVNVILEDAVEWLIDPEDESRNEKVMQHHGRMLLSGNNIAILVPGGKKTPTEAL
T3 sequence 5: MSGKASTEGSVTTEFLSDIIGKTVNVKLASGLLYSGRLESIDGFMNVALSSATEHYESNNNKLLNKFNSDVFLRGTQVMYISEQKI
T3 sequence 6: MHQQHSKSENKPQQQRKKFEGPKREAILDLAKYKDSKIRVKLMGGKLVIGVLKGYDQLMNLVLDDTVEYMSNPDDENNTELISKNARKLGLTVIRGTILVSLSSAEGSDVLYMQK
T3 sequence 7: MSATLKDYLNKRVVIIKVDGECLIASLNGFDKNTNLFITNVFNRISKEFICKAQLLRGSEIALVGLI

Lsm2-8 Lsm2-K20E = biological target: T4, Lsm2-8 Lsm2-K20E (Saccharomyces cerevisiae, UniProt P38203;P57743;P40070;P40089;Q06406;P53905;P47093 …, K20E); conditions: protein: recombinant; tags: as P1; copies: 1;1;1;1;1;1;1; label: 5'-FAM; single strand
T4 sequence 1: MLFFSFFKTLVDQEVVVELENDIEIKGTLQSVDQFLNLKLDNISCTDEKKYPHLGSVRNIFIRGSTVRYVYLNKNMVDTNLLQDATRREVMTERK
T4 sequence 2: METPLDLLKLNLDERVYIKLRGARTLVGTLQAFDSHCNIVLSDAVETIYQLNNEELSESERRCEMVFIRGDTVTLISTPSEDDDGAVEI
T4 sequence 3: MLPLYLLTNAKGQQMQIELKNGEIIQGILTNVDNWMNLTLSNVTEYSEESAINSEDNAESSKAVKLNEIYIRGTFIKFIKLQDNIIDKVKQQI
T4 sequence 4: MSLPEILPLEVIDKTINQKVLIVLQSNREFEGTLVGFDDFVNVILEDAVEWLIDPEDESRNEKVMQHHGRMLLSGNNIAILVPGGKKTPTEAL
T4 sequence 5: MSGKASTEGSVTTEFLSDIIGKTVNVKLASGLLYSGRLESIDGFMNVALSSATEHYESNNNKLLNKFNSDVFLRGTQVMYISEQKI
T4 sequence 6: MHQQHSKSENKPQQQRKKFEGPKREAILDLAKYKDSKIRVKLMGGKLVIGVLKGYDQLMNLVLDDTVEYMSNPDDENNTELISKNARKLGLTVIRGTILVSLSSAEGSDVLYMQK
T4 sequence 7: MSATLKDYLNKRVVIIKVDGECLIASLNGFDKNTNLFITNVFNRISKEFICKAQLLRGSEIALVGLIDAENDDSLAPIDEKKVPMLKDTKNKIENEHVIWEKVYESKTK

Lsm2-8 Lsm2-K20A = biological target: T5, Lsm2-8 Lsm2-K20A (Saccharomyces cerevisiae, UniProt P38203;P57743;P40070;P40089;Q06406;P53905;P47093 …, K20A); conditions: protein: recombinant; tags: as P1; copies: 1;1;1;1;1;1;1; label: 5'-FAM; single strand
T5 sequence 1: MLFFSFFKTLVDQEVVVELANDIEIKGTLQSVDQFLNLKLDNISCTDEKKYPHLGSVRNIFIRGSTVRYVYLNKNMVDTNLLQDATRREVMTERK
T5 sequence 2: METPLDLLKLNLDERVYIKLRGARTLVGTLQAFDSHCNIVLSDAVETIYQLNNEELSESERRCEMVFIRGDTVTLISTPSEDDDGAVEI
T5 sequence 3: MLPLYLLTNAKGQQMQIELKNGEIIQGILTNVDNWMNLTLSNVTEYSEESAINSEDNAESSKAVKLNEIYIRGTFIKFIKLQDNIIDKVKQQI
T5 sequence 4: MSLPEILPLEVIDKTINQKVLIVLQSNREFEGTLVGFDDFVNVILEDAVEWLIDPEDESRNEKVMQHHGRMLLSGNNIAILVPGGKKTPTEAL
T5 sequence 5: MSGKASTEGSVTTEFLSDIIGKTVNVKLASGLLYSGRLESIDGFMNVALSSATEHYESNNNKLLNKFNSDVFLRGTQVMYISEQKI
T5 sequence 6: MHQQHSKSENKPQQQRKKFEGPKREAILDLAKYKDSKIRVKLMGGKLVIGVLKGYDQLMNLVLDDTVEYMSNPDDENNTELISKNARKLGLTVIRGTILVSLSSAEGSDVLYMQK
T5 sequence 7: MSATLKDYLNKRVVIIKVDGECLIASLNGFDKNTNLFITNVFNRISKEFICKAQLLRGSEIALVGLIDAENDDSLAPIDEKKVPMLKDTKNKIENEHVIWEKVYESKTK

Lsm2-8 Lsm3-R21E = biological target: T6, Lsm2-8 Lsm3-R21E (Saccharomyces cerevisiae, UniProt P38203;P57743;P40070;P40089;Q06406;P53905;P47093 …, R21E); conditions: protein: recombinant; tags: as P1; copies: 1;1;1;1;1;1;1; label: 5'-FAM; single strand
T6 sequence 1: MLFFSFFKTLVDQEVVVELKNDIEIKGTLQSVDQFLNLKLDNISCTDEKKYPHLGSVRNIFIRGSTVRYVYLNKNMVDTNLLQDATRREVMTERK
T6 sequence 2: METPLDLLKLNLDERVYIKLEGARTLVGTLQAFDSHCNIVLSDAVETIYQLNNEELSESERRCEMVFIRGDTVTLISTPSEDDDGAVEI
T6 sequence 3: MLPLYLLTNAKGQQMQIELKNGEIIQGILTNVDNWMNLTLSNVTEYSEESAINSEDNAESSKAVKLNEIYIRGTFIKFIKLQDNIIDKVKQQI
T6 sequence 4: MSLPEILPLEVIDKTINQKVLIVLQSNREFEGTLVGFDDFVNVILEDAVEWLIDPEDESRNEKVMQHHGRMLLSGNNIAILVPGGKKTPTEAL
T6 sequence 5: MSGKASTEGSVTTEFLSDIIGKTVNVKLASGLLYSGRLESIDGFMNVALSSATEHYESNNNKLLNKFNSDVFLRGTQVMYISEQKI
T6 sequence 6: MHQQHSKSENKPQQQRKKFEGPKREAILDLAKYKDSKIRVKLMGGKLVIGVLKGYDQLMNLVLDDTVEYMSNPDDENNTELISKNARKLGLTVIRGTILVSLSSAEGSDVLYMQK
T6 sequence 7: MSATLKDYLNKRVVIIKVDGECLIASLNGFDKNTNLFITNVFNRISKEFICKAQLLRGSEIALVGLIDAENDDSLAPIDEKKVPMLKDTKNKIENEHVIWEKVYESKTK

Binder: UUUCGUUUUU (ssRNA, 3' phosphate) [U6 104-113 3' phosphate]
- Kd (Lsm2-8 Lsm3-R21A): 123 ± 12 nM
- Kd (Lsm2-8 construct 2 (WT)): 6.13 ± 0.87 nM
- Kd (Lsm2-8 Lsm8-delC): 502 ± 47 nM
- Kd (Lsm2-8 Lsm2-K20E): 2320 ± 450 nM
- Kd (Lsm2-8 Lsm2-K20A): 841 ± 89 nM
- Kd (Lsm2-8 Lsm3-R21E): 1150 ± 190 nM

From paper PMC5931518, “Architecture of the U6 snRNP reveals specific recognition of 3′-end processed U6 snRNA”
